Positions of bridges follow the written chain, without caps; N, C: chain ends. Non-standard residues stand in square brackets, D forms with d. No end group written: not given here. AlaL = alanine half of a lanthionine (monosulfide) bridge; Thr(ol) = C[C@@H](O)[C@H](N)CO; dValL = not defined here
Key:
[1] = target: δ-receptor (mouse vas deferens preparation) (mouse), P32300; assay: cell-based or functional assay
[2] = target: µ-receptor (guinea pig ileum preparation) (guinea pig); assay: cell-based or functional assay
[3] = target: δ-receptor (mouse vas deferens preparation) (mouse) (UniProt P32300); assay: cell-based or functional assay
Sequence of δ-receptor (mouse vas deferens preparation) (mouse) (P32300 whole entry, stated change not applied): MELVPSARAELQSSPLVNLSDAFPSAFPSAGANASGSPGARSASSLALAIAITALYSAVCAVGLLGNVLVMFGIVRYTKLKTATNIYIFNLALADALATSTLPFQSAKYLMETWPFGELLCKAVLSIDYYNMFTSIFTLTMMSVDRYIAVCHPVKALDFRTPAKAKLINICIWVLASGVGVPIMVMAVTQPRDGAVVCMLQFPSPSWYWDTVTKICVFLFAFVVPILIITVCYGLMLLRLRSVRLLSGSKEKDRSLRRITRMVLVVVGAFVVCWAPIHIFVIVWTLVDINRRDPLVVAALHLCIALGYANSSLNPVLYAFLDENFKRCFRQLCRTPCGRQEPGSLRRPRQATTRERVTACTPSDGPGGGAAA

[4] = target: SSTR4 Receptor (cloned somatostatin receptor); assay: inhibition of radioligand binding to cloned SSTR4
Sequence of SSTR4 Receptor (cloned somatostatin receptor) (P30938 whole entry): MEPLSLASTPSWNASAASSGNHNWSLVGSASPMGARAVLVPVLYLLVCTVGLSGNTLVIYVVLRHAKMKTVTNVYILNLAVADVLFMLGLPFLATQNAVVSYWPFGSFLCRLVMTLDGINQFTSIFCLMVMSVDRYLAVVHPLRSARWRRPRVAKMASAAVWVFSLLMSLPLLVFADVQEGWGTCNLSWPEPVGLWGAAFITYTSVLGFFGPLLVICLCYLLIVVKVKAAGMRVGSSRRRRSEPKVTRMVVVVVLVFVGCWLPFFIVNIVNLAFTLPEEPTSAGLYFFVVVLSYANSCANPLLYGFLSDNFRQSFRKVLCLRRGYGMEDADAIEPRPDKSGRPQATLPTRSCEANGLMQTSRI

[5] = target: SSTR2 Receptor (cloned somatostatin receptor); assay: inhibition of radioligand binding to cloned SSTR2
Sequence of SSTR2 Receptor (cloned somatostatin receptor) (P30875 whole entry): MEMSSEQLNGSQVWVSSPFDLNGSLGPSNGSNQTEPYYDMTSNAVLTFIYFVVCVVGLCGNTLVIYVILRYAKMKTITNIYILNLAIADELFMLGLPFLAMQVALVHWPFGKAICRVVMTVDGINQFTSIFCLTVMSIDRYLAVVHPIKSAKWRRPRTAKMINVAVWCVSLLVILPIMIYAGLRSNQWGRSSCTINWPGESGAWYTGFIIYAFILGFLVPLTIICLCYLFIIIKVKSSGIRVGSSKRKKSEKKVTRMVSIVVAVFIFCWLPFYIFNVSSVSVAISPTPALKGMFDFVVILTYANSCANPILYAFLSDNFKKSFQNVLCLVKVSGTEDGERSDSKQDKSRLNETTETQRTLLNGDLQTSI

Sequence of δ-receptor (mouse vas deferens preparation) (mouse), P32300 (P32300 whole entry, stated change not applied): as the sequence (P32300 whole entry, stated change not applied) above

Binder	GPI IC50 [2] [nM]	IC50 [4] [nM]	IC50 [5] [nM]	also measured
Y[dAlaL]GF[AlaL]-OH (bridge 2-5; not fully specified (bridges); printed as Tyr-c[D-AlaL-Gly-Phe-L-AlaL]-OH) [Tyr-c[D-AlaL-Gly-Phe-L-AlaL]-OH]	–	–	–	MVD IC50 [1]: 0.16 nM
Y[dValL]GF[AlaL]-OMe (thioether 2-5; reading uncertain; also: printed as Tyr-c[D-ValL-Gly-Phe-L-AlaL]-OMe) [Tyr-c[D-ValL-Gly-Phe-L-AlaL]-OMe]	88.1	–	–	MVD IC50 [3]: 3.65 nM
Y[dValL]GF[AlaL]-OH (thioether 2-5; reading uncertain; also: printed as Tyr-c[D-ValL-Gly-Phe-L-AlaL]-OH) [Tyr-c[D-ValL-Gly-Phe-L-AlaL]-OH]	39	–	–	–
Y[dValL]GF[dAlaL]-OH (thioether 2-5; reading uncertain; also: printed as Tyr-c[D-ValL-Gly-Phe-D-AlaL]-OH) [Tyr-c[D-ValL-Gly-Phe-D-AlaL]-OH]	535	–	–	–
Y[dAlaL]GF[AlaL]-NH2 (bridge 2-5; not fully specified (bridges); printed as Tyr-c[D-AlaL-Gly-Phe-L-AlaL]-NH2) [Tyr-c[D-AlaL-Gly-Phe-L-AlaL]-NH2]	–	–	–	MVD IC50 [1]: 0.54 nM
H-[dF][AlaL]F[dW]KT[AlaL]-OH (thioether 2-7) [H-D-Phe-c[AlaLPhe-D-Trp-Lys-Thr-AlaL]-OH]	–	500	–	–
H-[dF][AlaL]F[dW]KT[AlaL][Thr(ol)] (thioether 2-7) [H-D-Phe-c[AlaLPhe-D-Trp-Lys-Thr-AlaL]-Thr-ol]	–	1	5	–
Y[dAlaL]GF[dAlaL]-NH2 (thioether 2-5) [Tyr-c[D-AlaL-Gly-Phe-D-AlaL]-NH2]	1.67	–	–	MVD IC50 [3]: 1.67 nM
H-[dF][AlaL]F[dW]KT[AlaL]T-NH2 (thioether 2-7) [H-D-Phe-c[AlaLPhe-D-Trp-Lys-Thr-AlaL]-Thr-NH2]	–	0.5	10	–
AGCKNFFWKTFTSC (peptide, UniProt P61278 103-116, looked up, disulfide 3-14 (inferred)) [Somatostatin-14]	–	0.86	0.28	–
[dF]CF[dW]KTC[Thr(ol)] (disulfide 2-7) [Sandostatin]	–	–	2.4	–

Reference: patent publication US20020165132A1
